The supplement of paper PMC10266784

B1: library; numbered along this chain (parent)
chain: MAAAAAAAAEQQSSNGPVKKSMREKAVERRSVNKEHNSNFKAGYIPIDEDRLHKTGLRGRKGNLAICVIILLFILAVINLIITLVIWAVIRIGPNGCDSMEFHESGLLRFKQVSDMGVIHPLYKSTVGGRRNENLVITGNNQPIVFQQGTTKLSVENNKTSITSDIGMQFFDPRTQNILFSTDYETHEFHLPSGVKSLNVQKASTERITSNATSDLNIKVDGRAIVRGNEGVFIMGKTIEFHMGGNMELKAENSIILNGSVMVSTTRLPSSSSGDQLGSGDWVRYKLCMCADGTLFKVQVTSQNMGCQISDNPCGNTH

Variants of: B1
Experiment: SGCB cell-surface expression functional score (HA stain, bin4 vs bin1, normalised to synonymous) (log10 ratio); higher = more cell-surface SGCB (functional)
Method in brief: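 Codon-saturation libraries of HA-tagged, YFP-fused human beta-sarcoglycan were lentivirally transduced at MOI <0.1 into HEK293 cells stably expressing alpha-, gamma- and delta-sarcoglycan. YFP-positive cells were sorted after 72 hours, grown 5–7 days, stained on ice with Alexa Fluor 647 anti-HA, fixed, sorted into four 5% intensity bins and amplicon-sequenced. The functional score is the log ratio of highest-bin to lowest-bin variant frequency, taken as the median over codons and duplicate transductions. Synonymous variants were scaled per section to mean 0, SD 0.5.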

Compared with N158S, G228R is lower in “SGCB cell-surface expression functional score (log10)” value: 0.15 for the first, -0.47 for the second.

K34I and S302Y are within 0.2 log units of each other in “SGCB cell-surface expression functional score (log10)” value: -0.05 for the first, -0.06 for the second.

Compared with V127E, I255V is higher in “SGCB cell-surface expression functional score (log10)” value: -0.65 for the first, 0.07 for the second.

Compared with G194R, V300C is lower in “SGCB cell-surface expression functional score (log10)” value: -0.07 for the first, -0.27 for the second.

Going from I86T to D48C, the “SGCB cell-surface expression functional score (log10)” value rises from -0.15 to 0.13.

Going from L249K to A291L, the “SGCB cell-surface expression functional score (log10)” value rises from -1.29 to -0.71.

Compared with L75Q, G245Y is higher in “SGCB cell-surface expression functional score (log10)” value: -0.18 for the first, 1.09 for the second.

P17G and R29D are within 0.2 log units of each other in “SGCB cell-surface expression functional score (log10)” value: -0.18 for the first, -0.22 for the second.

First: P121A
Second: N229C
The “SGCB cell-surface expression functional score (log10)” value of the first is lower: -0.17 for the first, 0.72 for the second.

Compared with G244S, R284Q is lower in “SGCB cell-surface expression functional score (log10)” value: 0.77 for the first, 0.05 for the second.

Going from H242L to G228H, the “SGCB cell-surface expression functional score (log10)” value falls from 0.7 to -1.79.

Compared with H36S, M289K is lower in “SGCB cell-surface expression functional score (log10)” value: 0.21 for the first, -0.23 for the second.

First: T160W
Second: P94A
The “SGCB cell-surface expression functional score (log10)” value of the first is lower: -0.95 for the first, 0.03 for the second.

First: F241E
Second: G149P
The “SGCB cell-surface expression functional score (log10)” value of the first is higher: 0.03 for the first, -1.17 for the second.

Compared with K61Y, I82R is lower in “SGCB cell-surface expression functional score (log10)” value: 0.64 for the first, -0.66 for the second.

Going from S38P to V136T, the “SGCB cell-surface expression functional score (log10)” value falls from -0.2 to -0.51.

Compared with G231P, V232L is higher in “SGCB cell-surface expression functional score (log10)” value: -1.37 for the first, 0.35 for the second.

First: G43P
Second: N177H
The “SGCB cell-surface expression functional score (log10)” value of the first is higher: 0.76 for the first, 0.09 for the second.

First: L72I
Second: I144D
The “SGCB cell-surface expression functional score (log10)” value of the first is higher: 0.41 for the first, -0.57 for the second.

Going from A26R to G167K, the “SGCB cell-surface expression functional score (log10)” value falls from 0.15 to -0.34.

Going from I137C to D311C, the “SGCB cell-surface expression functional score (log10)” value rises from -1.42 to 0.1.

First: F110C
Second: S264T
The “SGCB cell-surface expression functional score (log10)” value of the first is lower: -1.22 for the first, 0.31 for the second.

First: F171V
Second: G222A
The “SGCB cell-surface expression functional score (log10)” value of the first is lower: -0.07 for the first, 0.63 for the second.

Going from E156I to I234S, the “SGCB cell-surface expression functional score (log10)” value falls from -0.63 to -0.92.

First: K250E
Second: G245T
The “SGCB cell-surface expression functional score (log10)” value of the first is lower: 0.06 for the first, 0.57 for the second.

Going from V118Y to V32G, the “SGCB cell-surface expression functional score (log10)” value rises from -0.32 to 0.1.

First: R223L
Second: G96F
The “SGCB cell-surface expression functional score (log10)” value of the first is higher: 0.34 for the first, -2.5 for the second.

First: T182F
Second: S264I
The “SGCB cell-surface expression functional score (log10)” value of the first is lower: -2.63 for the first, 0.34 for the second.

Going from G228I to G244Q, the “SGCB cell-surface expression functional score (log10)” value rises from -1.44 to 0.86.

First: G315H
Second: L179R
The “SGCB cell-surface expression functional score (log10)” value of the first is lower: 0.04 for the first, 0.67 for the second.

Going from S214C to E230Q, the “SGCB cell-surface expression functional score (log10)” value rises from -0.08 to 0.32.

First: E24Q
Second: G117D
The “SGCB cell-surface expression functional score (log10)” value of the first is higher: 0.01 for the first, -0.32 for the second.

Going from N229V to Q112W, the “SGCB cell-surface expression functional score (log10)” value falls from 0.87 to -0.83.

S154V and V27K are within 0.2 log units of each other in “SGCB cell-surface expression functional score (log10)” value: 0.16 for the first, 0.02 for the second.

K196F and P94R are within 0.2 log units of each other in “SGCB cell-surface expression functional score (log10)” value: -0.74 for the first, -0.65 for the second.

Going from T55E to S279E, the “SGCB cell-surface expression functional score (log10)” value rises from -0.18 to 0.22.

Compared with S14E, K25M is lower in “SGCB cell-surface expression functional score (log10)” value: 0.27 for the first, -0.1 for the second.

Compared with M247W, K61C is higher in “SGCB cell-surface expression functional score (log10)” value: -1.52 for the first, 0.35 for the second.

Compared with A5I, R91G is lower in “SGCB cell-surface expression functional score (log10)” value: 0.29 for the first, -0.52 for the second.

First: K297I
Second: H53T
The “SGCB cell-surface expression functional score (log10)” value of the first is lower: -0.54 for the first, 0.14 for the second.

First: T209R
Second: V226F
The “SGCB cell-surface expression functional score (log10)” value of the first is lower: -0.83 for the first, 0.29 for the second.

Compared with N140P, D292F is higher in “SGCB cell-surface expression functional score (log10)” value: -0.49 for the first, -0.23 for the second.

First: I119N
Second: R58S
The “SGCB cell-surface expression functional score (log10)” value of the first is lower: -1.15 for the first, -0.22 for the second.

Going from S193L to S260E, the “SGCB cell-surface expression functional score (log10)” value falls from 0.22 to -0.09.

Going from P94I to E252L, the “SGCB cell-surface expression functional score (log10)” value rises from -0.61 to 0.88.

First: T160R
Second: E188C
The “SGCB cell-surface expression functional score (log10)” value of the first is lower: -1.29 for the first, -1.07 for the second.

Going from E156M to P121G, the “SGCB cell-surface expression functional score (log10)” value falls from -0.14 to -0.47.

T175C and R29L are within 0.2 log units of each other in “SGCB cell-surface expression functional score (log10)” value: -0.43 for the first, -0.3 for the second.

H103L and V136K are within 0.2 log units of each other in “SGCB cell-surface expression functional score (log10)” value: 0.33 for the first, 0.36 for the second.

First: D98A
Second: C288T
The “SGCB cell-surface expression functional score (log10)” value of the first is higher: 0.32 for the first, -0.27 for the second.

Going from D115P to M305Y, the “SGCB cell-surface expression functional score (log10)” value rises from -1.39 to -1.05.

Compared with I218H, V145A is higher in “SGCB cell-surface expression functional score (log10)” value: -2.33 for the first, -0.01 for the second.

First: V118T
Second: Q308P
The “SGCB cell-surface expression functional score (log10)” value of the first is higher: 0.29 for the first, -1.21 for the second.

D48V and V118L are within 0.2 log units of each other in “SGCB cell-surface expression functional score (log10)” value: 0.07 for the first, -0.05 for the second.

First: C290T
Second: I47W
The “SGCB cell-surface expression functional score (log10)” value of the first is higher: -0.17 for the first, -0.62 for the second.

Compared with N33S, A4G is higher in “SGCB cell-surface expression functional score (log10)” value: -0.01 for the first, 0.26 for the second.

F110L and D50W are within 0.2 log units of each other in “SGCB cell-surface expression functional score (log10)” value: -0.53 for the first, -0.47 for the second.

Compared with K196C, E188F is lower in “SGCB cell-surface expression functional score (log10)” value: -0.14 for the first, -1.65 for the second.

Compared with E101I, K297H is higher in “SGCB cell-surface expression functional score (log10)” value: -0.3 for the first, -0.02 for the second.

Going from N199F to F170K, the “SGCB cell-surface expression functional score (log10)” value falls from 0.74 to -0.63.

S114C and L295V are within 0.2 log units of each other in “SGCB cell-surface expression functional score (log10)” value: 0.01 for the first, -0.12 for the second.

Compared with T266L, V118S is lower in “SGCB cell-surface expression functional score (log10)” value: 0.47 for the first, 0.19 for the second.

Compared with E10Q, V77S is lower in “SGCB cell-surface expression functional score (log10)” value: 0.15 for the first, -0.06 for the second.

First: G231M
Second: I208Q
The “SGCB cell-surface expression functional score (log10)” value of the first is higher: -1.23 for the first, -1.96 for the second.

Going from T294Q to E133L, the “SGCB cell-surface expression functional score (log10)” value falls from 0.06 to -0.3.

P143K and V145Q are within 0.2 log units of each other in “SGCB cell-surface expression functional score (log10)” value: -0.28 for the first, -0.39 for the second.

First: F233W
Second: G222M
The “SGCB cell-surface expression functional score (log10)” value of the first is lower: 0.09 for the first, 0.55 for the second.

Compared with I239A, G315M is higher in “SGCB cell-surface expression functional score (log10)” value: 0.09 for the first, 0.54 for the second.

Compared with I92Y, P313G is higher in “SGCB cell-surface expression functional score (log10)” value: -2.16 for the first, -0.17 for the second.

Going from G231Q to I81L, the “SGCB cell-surface expression functional score (log10)” value rises from -0.92 to 0.1.

Compared with P46H, T83C is lower in “SGCB cell-surface expression functional score (log10)” value: 0.31 for the first, -0.51 for the second.

D165E and Y123G are within 0.2 log units of each other in “SGCB cell-surface expression functional score (log10)” value: 0.02 for the first, -0.11 for the second.

Going from E24S to N253S, the “SGCB cell-surface expression functional score (log10)” value rises from 0.26 to 0.59.

Going from I92G to I66H, the “SGCB cell-surface expression functional score (log10)” value rises from -0.75 to -0.2.

F73S and S260L are within 0.2 log units of each other in “SGCB cell-surface expression functional score (log10)” value: -0.15 for the first, -0.22 for the second.

Compared with R207Y, S193K is higher in “SGCB cell-surface expression functional score (log10)” value: -0.73 for the first, 0.33 for the second.

Compared with A212I, G106Q is lower in “SGCB cell-surface expression functional score (log10)” value: 0.23 for the first, -1.48 for the second.

Going from N95P to L107I, the “SGCB cell-surface expression functional score (log10)” value rises from -1.26 to 0.27.

L64C and A9R are within 0.2 log units of each other in “SGCB cell-surface expression functional score (log10)” value: 0.26 for the first, 0.3 for the second.

Compared with S254N, A42V is lower in “SGCB cell-surface expression functional score (log10)” value: 0.66 for the first, -0.08 for the second.

First: L52M
Second: K286R
The “SGCB cell-surface expression functional score (log10)” value of the first is higher: 0.34 for the first, -1 for the second.

Compared with R91Y, H120E is higher in “SGCB cell-surface expression functional score (log10)” value: -1.94 for the first, -0.09 for the second.

S21L and A5K are within 0.2 log units of each other in “SGCB cell-surface expression functional score (log10)” value: -0.08 for the first, 0.07 for the second.

For H187L, the “SGCB cell-surface expression functional score (log10)” value was -1.47.
